{"source": "paper PMC10333293", "about": "“Membrane recruitment of the polarity protein Scribble by the cell adhesion receptor TMIGD1” (Communications Biology, 2023)", "key": {"APC PBM (Homo sapiens)": {"biological_target": "APC PBM (Homo sapiens) (UniProt P25054)", "sequence (P25054 whole entry, looked up)": "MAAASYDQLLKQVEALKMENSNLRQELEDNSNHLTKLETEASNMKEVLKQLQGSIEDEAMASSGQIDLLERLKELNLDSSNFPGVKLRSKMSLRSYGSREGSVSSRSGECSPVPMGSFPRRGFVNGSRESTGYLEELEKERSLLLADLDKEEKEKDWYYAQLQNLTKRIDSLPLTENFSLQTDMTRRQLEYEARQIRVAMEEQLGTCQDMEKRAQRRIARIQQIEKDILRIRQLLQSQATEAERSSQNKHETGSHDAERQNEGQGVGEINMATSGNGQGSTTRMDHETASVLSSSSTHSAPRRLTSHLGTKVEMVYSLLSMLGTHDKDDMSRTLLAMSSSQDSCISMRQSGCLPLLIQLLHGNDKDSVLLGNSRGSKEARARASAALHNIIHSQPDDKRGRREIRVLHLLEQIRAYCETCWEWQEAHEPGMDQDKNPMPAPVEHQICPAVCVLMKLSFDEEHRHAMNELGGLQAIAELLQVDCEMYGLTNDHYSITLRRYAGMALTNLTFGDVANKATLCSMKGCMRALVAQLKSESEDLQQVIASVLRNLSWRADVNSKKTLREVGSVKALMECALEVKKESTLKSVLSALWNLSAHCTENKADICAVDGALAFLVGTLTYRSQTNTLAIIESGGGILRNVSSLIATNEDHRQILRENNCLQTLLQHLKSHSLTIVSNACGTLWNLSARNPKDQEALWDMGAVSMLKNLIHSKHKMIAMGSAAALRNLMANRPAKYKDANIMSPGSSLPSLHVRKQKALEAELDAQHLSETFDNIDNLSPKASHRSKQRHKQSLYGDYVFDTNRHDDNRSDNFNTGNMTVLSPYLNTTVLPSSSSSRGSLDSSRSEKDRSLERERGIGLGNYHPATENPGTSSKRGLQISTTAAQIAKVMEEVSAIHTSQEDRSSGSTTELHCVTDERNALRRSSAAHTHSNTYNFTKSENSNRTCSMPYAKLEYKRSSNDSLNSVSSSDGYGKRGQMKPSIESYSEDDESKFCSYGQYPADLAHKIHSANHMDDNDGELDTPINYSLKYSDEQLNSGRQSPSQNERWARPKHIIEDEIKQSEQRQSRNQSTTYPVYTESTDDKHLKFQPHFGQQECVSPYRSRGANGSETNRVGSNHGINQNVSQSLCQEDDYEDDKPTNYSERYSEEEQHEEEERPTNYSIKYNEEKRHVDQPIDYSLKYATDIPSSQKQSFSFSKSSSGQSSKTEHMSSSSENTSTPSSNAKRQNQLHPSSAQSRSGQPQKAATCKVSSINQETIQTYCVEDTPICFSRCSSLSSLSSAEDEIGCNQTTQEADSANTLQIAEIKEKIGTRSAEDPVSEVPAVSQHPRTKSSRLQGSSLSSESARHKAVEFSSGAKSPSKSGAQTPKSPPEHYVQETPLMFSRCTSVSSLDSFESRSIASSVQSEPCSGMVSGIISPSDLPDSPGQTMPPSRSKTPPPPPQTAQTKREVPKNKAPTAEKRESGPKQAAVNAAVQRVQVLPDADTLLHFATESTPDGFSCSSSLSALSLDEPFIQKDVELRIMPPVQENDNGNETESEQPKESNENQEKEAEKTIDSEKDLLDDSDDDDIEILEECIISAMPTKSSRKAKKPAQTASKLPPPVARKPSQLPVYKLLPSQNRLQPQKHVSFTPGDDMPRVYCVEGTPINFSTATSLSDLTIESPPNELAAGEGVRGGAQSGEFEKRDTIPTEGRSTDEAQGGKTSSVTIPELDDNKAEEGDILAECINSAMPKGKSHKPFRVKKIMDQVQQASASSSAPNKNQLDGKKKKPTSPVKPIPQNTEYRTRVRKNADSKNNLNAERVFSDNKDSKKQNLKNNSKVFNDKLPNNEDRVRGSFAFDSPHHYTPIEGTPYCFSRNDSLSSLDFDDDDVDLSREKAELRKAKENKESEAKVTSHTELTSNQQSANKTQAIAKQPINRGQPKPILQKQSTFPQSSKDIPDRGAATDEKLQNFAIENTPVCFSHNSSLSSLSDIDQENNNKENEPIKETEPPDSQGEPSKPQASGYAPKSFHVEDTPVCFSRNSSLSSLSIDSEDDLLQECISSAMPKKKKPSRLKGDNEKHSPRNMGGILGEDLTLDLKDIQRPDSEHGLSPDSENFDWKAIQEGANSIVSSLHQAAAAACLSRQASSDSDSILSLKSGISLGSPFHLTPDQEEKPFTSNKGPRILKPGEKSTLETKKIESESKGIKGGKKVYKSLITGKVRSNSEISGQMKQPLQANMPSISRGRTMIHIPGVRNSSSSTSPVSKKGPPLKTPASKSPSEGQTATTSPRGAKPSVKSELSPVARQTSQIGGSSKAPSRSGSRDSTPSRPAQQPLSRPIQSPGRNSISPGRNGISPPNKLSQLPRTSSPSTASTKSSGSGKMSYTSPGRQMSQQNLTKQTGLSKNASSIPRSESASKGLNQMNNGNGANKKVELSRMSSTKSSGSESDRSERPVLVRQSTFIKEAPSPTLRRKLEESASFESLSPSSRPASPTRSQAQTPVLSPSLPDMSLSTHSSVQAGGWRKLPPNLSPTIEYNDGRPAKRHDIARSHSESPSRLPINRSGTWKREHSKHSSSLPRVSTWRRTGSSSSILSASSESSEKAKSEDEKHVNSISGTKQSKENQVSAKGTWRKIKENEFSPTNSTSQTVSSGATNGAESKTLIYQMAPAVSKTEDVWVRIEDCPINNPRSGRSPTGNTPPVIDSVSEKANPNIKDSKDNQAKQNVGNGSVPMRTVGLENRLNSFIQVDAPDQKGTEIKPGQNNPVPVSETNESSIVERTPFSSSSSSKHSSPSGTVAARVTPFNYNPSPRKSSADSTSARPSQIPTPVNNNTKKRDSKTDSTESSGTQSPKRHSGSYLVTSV", "conditions": "cited from earlier work"}, "hScrib/PDZ1 (AA 728-815)": {"biological_target": "T1, hScrib/PDZ1 (AA 728-815) (human, UniProt Q14160 728-815)", "T1 construct": "Scribble, human, PDZ1 domain, AA 728-815; In pGEX-6P-3 or pGIL-MBP; also called PDZ domain 1 of Scrib; source: E. coli BL21 (DE3) CodonPlus or pLysS, purified", "T1 sequence (Q14160 728-815)": "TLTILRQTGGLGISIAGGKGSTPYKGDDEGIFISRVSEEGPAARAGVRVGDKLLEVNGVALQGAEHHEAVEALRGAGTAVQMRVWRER", "test": "ITC; peptide (900-1100 µM) titrated into PDZ domain (75 µM); 25 mM Tris-HCl pH 8.0, 150 mM NaCl, 5 mM TCEP; 25 °C; 20 injections; one-site binding model", "conditions": "both partners purified"}, "[1]": {"biological_target": "T2, hScrib/PDZ3 (AA 1005-1094) (human, UniProt Q14160 1005-1094)", "T2 construct": "Scribble, human, PDZ3 domain, AA 1005-1094; In pGEX-6P-3 or pGIL-MBP; source: E. coli BL21 (DE3) CodonPlus or pLysS, purified", "T2 sequence (looked up)": "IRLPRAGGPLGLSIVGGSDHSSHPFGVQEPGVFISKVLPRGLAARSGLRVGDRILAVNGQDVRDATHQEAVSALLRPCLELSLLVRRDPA", "test": "ITC; peptide (900-1100 µM) titrated into PDZ domain (75 µM); 25 mM Tris-HCl pH 8.0, 150 mM NaCl, 5 mM TCEP; 25 °C; 20 injections; one-site binding model", "conditions": "both partners purified"}, "[2]": {"biological_target": "T3, human Scribble PDZ domain 1 (hScrib/PDZ1, AA 728-815) (human, UniProt Q14160 728-815)", "T3 construct": "human Scribble (Scrib), PDZ domain 1, residues 728-815; source: E. coli BL21 (DE3) CodonPlus or pLysS, purified, tag cleaved", "T3 sequence (Q14160 728-815)": "as the sequence (Q14160 728-815) above", "test": "ITC; purified PDZ domain at 75 uM against the 8-mer peptide at 900-1100 uM, 20 injections, 25 °C, 25 mM Tris-HCl pH 8.0, 150 mM NaCl, 5 mM TCEP, one-site binding model", "conditions": "both partners purified"}, "[3]": {"biological_target": "T4, human Scribble PDZ domain 3 (hScrib/PDZ3, AA 1005-1094) (human, UniProt Q14160 1005-1094)", "T4 construct": "human Scribble (Scrib), PDZ domain 3, residues 1005-1094; source: E. coli BL21 (DE3) CodonPlus or pLysS, purified, tag cleaved", "T4 sequence (looked up)": "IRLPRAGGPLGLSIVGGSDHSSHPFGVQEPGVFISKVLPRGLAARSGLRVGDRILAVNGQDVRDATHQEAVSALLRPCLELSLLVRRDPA", "test": "ITC; purified PDZ domain at 75 uM against the 8-mer peptide at 900-1100 uM, 20 injections, 25 °C, 25 mM Tris-HCl pH 8.0, 150 mM NaCl, 5 mM TCEP, one-site binding model", "conditions": "both partners purified"}}, "data": [{"molecule": "Scribble PDZ1 (from UniProt Q14160)", "values": [{"measurement": "Kd", "setting": "APC PBM (Homo sapiens)", "value": 6, "unit": "µM"}]}, {"molecule": "DPHSETAL (TMIGD1, human, the eight C-terminal residues with the PBM (SETAL), free C-terminal carboxyl; also called TMIGD1/WT; TMIGD1 PBM peptide; source: synthetic peptide (Genscript))", "note": "[C-terminally derived 8-mer human TMIGD1 peptide (DPHSETAL)]", "values": [{"measurement": "Kd", "setting": "hScrib/PDZ1 (AA 728-815)", "value": 18.2, "unit": "µM"}, {"measurement": "Kd", "setting": "[1]", "value": 9.12, "unit": "µM"}]}, {"molecule": "DPHSETAL (also called TMIGD1/WT; TMIGD1 PBM peptide; source: synthetic peptide, obtained from Genscript)", "note": "[C-terminally derived 8-mer human TMIGD1 peptide]", "values": [{"measurement": "stoichiometry N", "setting": "[2]", "value": "0.95 ± 0.07"}, {"measurement": "stoichiometry N", "setting": "[3]", "value": "0.93 ± 0.04"}]}]}
